From patent publication US20230265179A1 (TWIST BIOSCIENCE, published 2023)
Residue numbers refer to the chain shown, from its start.

T1: IL1RL2 over-expressed on Expi293 cells (UniProt Q9HB29 20-575, limits assumed)
T1 construct: whole, on cells; Target of the flow cytometry assay; MFI ratio is over-expressing cells over parent cells
T1 sequence (looked up): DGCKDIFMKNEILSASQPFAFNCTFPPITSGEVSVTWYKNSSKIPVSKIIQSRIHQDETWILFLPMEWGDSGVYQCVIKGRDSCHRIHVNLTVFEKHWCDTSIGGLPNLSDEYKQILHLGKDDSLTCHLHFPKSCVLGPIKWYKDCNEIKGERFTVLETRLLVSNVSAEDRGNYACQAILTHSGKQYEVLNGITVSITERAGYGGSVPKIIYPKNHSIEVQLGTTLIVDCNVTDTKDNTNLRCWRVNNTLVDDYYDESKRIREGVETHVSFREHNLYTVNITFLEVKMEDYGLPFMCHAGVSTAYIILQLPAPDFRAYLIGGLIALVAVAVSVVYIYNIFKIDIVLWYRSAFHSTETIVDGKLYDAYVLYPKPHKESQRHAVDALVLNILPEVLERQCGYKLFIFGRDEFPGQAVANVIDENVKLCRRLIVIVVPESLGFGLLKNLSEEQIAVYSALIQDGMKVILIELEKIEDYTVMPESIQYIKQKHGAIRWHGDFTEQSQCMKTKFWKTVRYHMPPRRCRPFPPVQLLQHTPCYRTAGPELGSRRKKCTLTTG

B1: TSLP-5 (VHH)
VHH: EVQLVESGGGLVQPGGSLRLSCAASGVTLDTDAMGWFRQAPGKEREFVAWINNRGTTDYADSVKGRFTISADNSKNTAYLQMNSLKPEDTAVYYCARVSQWLLGGPANWGQGTLVTVSS
notes: VHH-Fc (IgG2 Fc); not shown: IgG2 Fc of the VHH-Fc format
B2: TSLP-121 (antibody, V domains shown)
VH: QVQLVQSGAEVKKPGSSVKVSCKASGGSFSSYAISWVRQAPGQGLEWMGGIIPMNYAQKFQGRVTITADESTSTAYMELSSLRSEDTAVYYCARQLAAALVYWGQGTLVTVSS
VL: EIVLTQSPGTLSLSPGERATLSCRASQNVNTRYLAWYQQKPGQAPRLLIYAASSRATGIPDRFSGSGSGTDFTLTISSLEPEDFAVYYCQQYESSPYNFGQGTKVEIK
B3: TSLP-40 (VHH)
VHH: EVQLVESGGGLVQPGGSLRLSCAASGLTFSRYAMGWFRQAPGKEREFVSAIFSDGSTYYADSVKGRFTISADNSKNTAYLQMNSLKPEDTAVYYCARGPNWFDPWGQGTLVTVSS
notes: as for B1
B4: TSLP-35 (VHH)
VHH: EVQLVESGGGLVQPGGSLRLSCAASGCIFSTYFMGWFRQAPGKERELVSAIFSDGSTYYADSVKGRFTISADNSKNTAYLQMNSLKPEDTAVYYCALDWNLNRWGQGTLVTVSS
notes: as for B1
B5: TSLP-23 (VHH)
VHH: B4 VHH with C27R, W99L, N100S, L101T, N102V
notes: as for B1
B6: TSLP-36 (VHH)
VHH: EVQLVESGGGLVQPGGSLRLSCAASGGTLDDYVMGWFRQAPGKEREFVGFIGSDGSTLYADSVKGRFTISADNSKNTAYLQMNSLKPEDTAVYYCTTEWDGYWGQGTLVTVSS
notes: as for B1
B7: TSLP-22 (VHH)
VHH: EVQLVESGGGLVQPGGSLRLSCAASGRTFRSYVMGWFRQAPGKERELVSAIFSDGSTLYADSVKGRFTISADNSKNTAYLQMNSLKPEDTAVYYCAREDSSSGWFDYWGQGTLVTVSS
notes: as for B1
B8: TSLP-26 (VHH)
VHH: B7 VHH with R27L, R30S, V33I, E98D, S100Y, S101G, S102G, G103N, W104F
notes: as for B1
B9: TSLP-38 (VHH)
VHH: EVQLVESGGGLVQPGGSLRLSCAASGFSLDYYAMGWFRQAPGKERELVSAIFSDGSALYADSVKGRFTISADNSKNTAYLQMNSLKPEDTAVYYCAKDRDTGIGAYDWGQGTLVTVSS
notes: as for B1
B10: TSLP-30 (VHH)
VHH: EVQLVESGGGLVQPGGSLRLSCAASGRTFSTYGMGWFRQAPGKEREFVAAMISWNGGSSTYYADSVKGRFTISADNSKNTAYLQMNSLKPEDTAVYYCTTDPAEFYDSSTYYPAPFDYWGQGTLVTVSS
notes: as for B1
B11: TSLP-32 (VHH)
VHH: EVQLVESGGGLVQPGGSLRLSCAASGNSFNNYVMGWFRQAPGKEREMVSAIFSDGSTYYADSVKGRFTISADNSKNTAYLQMNSLKPEDTAVYYCVRDSGSVSGQTFDSWGQGTLVTVSS
notes: as for B1
B12: TSLP-13 (VHH)
VHH: EVQLVESGGGLVQPGGSLRLSCAASGFTFDDNDMGWFRQAPGKEREFVGAISWSGNTTYYKYYADSVKGRFTISADNSKNTAYLQMNSLKPEDTAVYYCSNQYGWGQGTLVTVSS
notes: as for B1
B13: TSLP-9 (VHH)
VHH: EVQLVESGGGLVQPGGSLRLSCAASGPMSSSAVMGWFRQAPGKEREAVALGWSGGSTYYADSVKGRFTISADNSKNTAYLQMNSLKPEDTAVYYCAIHTSREIWGQGTLVTVSS
notes: as for B1
B14: TSLP-16 (VHH)
VHH: EVQLVESGGGLVQPGGSLRLSCAASGFSLDDYAMGWFRQAPGKEREGVATIAGGYTYYADSVKGRFTISADNSKNTAYLQMNSLKPEDTAVYYCAAFDGYTGSDWGQGTLVTVSS
notes: not shown: IgG2 Fc of the VHH-Fc format
B15: TSLP-10 (VHH)
VHH: EVQLVESGGGLVQPGGSLRLSCAASGFTLDDYVMGWFRQAPGKEREGVATIAGGGTYYADSVKGRFTISADNSKNTAYLQMNSLKPEDTAVYYCASSGSYYPGHFEWGQGTLVTVSS
notes: as for B1
B16: TSLP-2 (VHH)
VHH: EVQLVESGGGLVQPGGSLRLSCAASGLTFSTTVMGWFRQAPGKEREWVATIAGDGSTFYADSVKGRFTISADNSKNTAYLQMNSLKPEDTAVYYCADINEDWGQGTLVTVSS
notes: as for B1
B17: TSLP-4 (VHH)
VHH: EVQLVESGGGLVQPGGSLRLSCAASGFTFSSYWMGWFRQAPGKERELVSAIFSDGSTMYADSVKGRFTISADNSKNTAYLQMNSLKPEDTAVYYCTRDSTDTRYWGQGTLVTVSS
notes: as for B1
B18: TSLP-17 (VHH)
VHH: EVQLVESGGGLVQPGGSLRLSCAASGTTFEIYPMGWFRQAPGKEREFVAAIHWNSGITYYADSVKGRFTISADNSKNTAYLQMNSLKPEDTAVYYCARDVFYFDSSGYSLWGQGTLVTVSS
notes: as for B1
B19: IL1RL2-179 (antibody, V domains shown)
VH: EVQLLESGGGLVQPGGSLRLSCAASGFTFSPRRMSWVRQAPGKGLEWVSTIDDLGRHTYYADSVKGRFTISRDNSKNTLYLQMNSLRAEDTAVYYCAKLANSLLFDYWGQGTLVTVSS
VL: DIQMTQSPSSLSASVGDRVTITCRASENIYSNLAWYQQKPGKAPKLLIYAASDLESGVPSRFSGSGSGTDFTLTISSLQPEDFATYYCGATDLSPWSIVFDQGTKVEIK
notes: IgG2
B20: IL1RL2-153 (antibody, V domains shown)
VH: EVQLLESGGGLVQPGGSLRLSCAASGFIFQWYDMGWVRQAPGKGLEWVSSIRGSSSSTYYADSVKGRFTISRDNSKNTLYLQMNSLRAEDTAVYYCARDLGDYWGQGTLVTVSS
VL: DIQMTQSPSSLSASVGDRVTITCRASQNIRSYLNWYQQKPGKAPKLLIYDDIDRPSGVPSRFSGSGSGTDFTLTISSLQPEDFATYYCQTWGPGIRVFGQGTKVEIK
notes: IgG2
B21: IL1RL2-165 (antibody, V domains shown)
VH: EVQLLESGGGLVQPGGSLRLSCAASGFTFSSAAMSWVRQAPGKGLEWVSAISGSGGNTYYADSVKGRFTISRDNSKNTLYLQMNSLRAEDTAVYYCARSYGGGFDYWGQGTLVTVSS
VL: DIQMTQSPSSLSASVGDRVTITCSGHNLGDKFASWYQQKPGKAPKLLIYSASNLESGVPSRFSGSGSGTDFTLTISSLQPEDFATYYCQSYASQGIHYVFGQGTKVEIK
notes: IgG2

Target: T2, TSLP (UniProt Q969D9 29-159)
T2 construct: Soluble analyte of the SPR assay
Assay: SPR, Carterra LSA, antibody amine-coupled, 1:1 model
Experimental: SPR experiments were performed on a Carterra LSA SPR biosensor equipped with a HC30M chip at 25° C. in HBS-TE. Antibodies were diluted to 10 μg/mL and amine-coupled to the sensor chip by EDC/NHS activation, followed by ethanolamine HCl quenching. Increasing concentrations of analyte were flowed over the sensor chip in HBS-TE with 0.5 mg/mL BSA with 5-minute association and 15-minute dissociation. Following each injection cycle the surface was regenerated with 2× 30-second injections of IgG elution buffer (Thermo). Data were analyzed in Carterra's Kinetics Tool software with 1:1 binding model.

| Binder | Kd [nM] | koff [s⁻¹] | kon [M⁻¹ s⁻¹] |
| --- | --- | --- | --- |
| B1 | 24.5 | 0.000759 | 31000 |
| B2 | 2.96 | 0.00175 | 589000 |
| B3 | 19.3 | 0.000493 | 25600 |
| B4 | 20 | 0.00145 | 72600 |
| B5 | 19.1 | 0.00131 | 68500 |
| B6 | 3.39 | 0.000487 | 144000 |
| B7 | 12.1 | 0.00106 | 88200 |
| B8 | 5.09 | 0.000228 | 44700 |
| B9 | 10.1 | 0.000487 | 48300 |
| B10 | 63.2 | 0.000996 | 15800 |
| B11 | 7.24 | 0.00121 | 167000 |
| B12 | 41.3 | 0.0013 | 31600 |
| B13 | 31 | 0.00151 | 48600 |
| B14 | 11.9 | 0.00143 | 120000 |
| B15 | 8.43 | 0.000805 | 95500 |
| B16 | 6.49 | 0.0018 | 278000 |
| B17 | 7.14 | 0.000542 | 75900 |
| B18 | 11.2 | 0.00042 | 37500 |

Target: T1, IL1RL2 over-expressed on Expi293 cells
Assay: flow cytometry titration on over-expressing Expi293 cells
Experimental: (§1) All incubations and washes were in buffer containing PBS+1% BSA. MFI Ratio is defined by the mean fluorescence intensity (MFI) of the cytokine over-expressing Expi293 cell over the Expi293 parent cell. […] EC50 was calculated in GraphPad Prism.

| Binder | EC50 [nM] |
| --- | --- |
| B19 | 27.5 |
| B20 | 445 |
| B21 | 34.5 |

Target: T3, TSLP on over-expressing Expi293 cells (UniProt Q969D9 29-159, limits assumed)
T3 construct: whole, on cells; Target of the flow cytometry assay; also called cytokine over-expressing Expi293 cells
Assay: flow cytometry titration on TSLP over-expressing Expi293 cells
Experimental: as §1

| Binder | EC50 [nM] |
| --- | --- |
| B1 | 0.73 |
| B2 | 1.35 |
| B3 | 0.14 |
| B4 | 0.28 |
| B5 | 0.12 |
| B6 | 0.11 |
| B7 | 0.66 |
| B8 | 3.37 |
| B9 | 0.31 |
| B10 | 0.43 |
| B11 | 0.45 |
| B12 | 0.37 |
| B13 | 0.73 |
| B14 | 0.58 |
| B15 | 1.4 |
| B16 | 0.43 |
| B17 | 0.18 |
| B18 | 0.12 |

Target: T3, TSLP on over-expressing Expi293 cells
Assay: flow cytometry, 100 nM, TSLP over-expressing Expi293 over parent cells
Experimental: as §1

| Binder | 100 nM (MFI Ratio) [MFI ratio] |
| --- | --- |
| B1 | 149 |
| B2 | 37.5 |
| B3 | 288 |
| B4 | 108 |
| B5 | 226 |
| B6 | 100 |
| B7 | 90.4 |
| B8 | 313 |
| B9 | 89.3 |
| B10 | 105 |
| B11 | 195 |
| B12 | 120 |
| B13 | 8.6 |
| B14 | 10 |
| B15 | 67.8 |
| B16 | 218 |
| B17 | 157 |
| B18 | 154 |

Target: T1, IL1RL2 over-expressed on Expi293 cells
Assay: flow cytometry, over-expressing Expi293 vs parent cells, 100 nM antibody;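 also: ratio is mean fluorescence intensity on over-expressing Expi293 cells divided by that measured on parental Expi293 cells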
Experimental: as §1

| Binder | 100 nM FACS (MFI Ratio) |
| --- | --- |
| B19 | 17.7 |
| B20 | 350 |
| B21 | 707 |
